Laboratory results taken from patent US8440629B2, “Cyclic receptor-associated protein (RAP) peptides” (Raptor Pharmaceuticals Inc., priority 2007, dated 2013).
Where a chain is given by its changes, count along the chain named. Names may count otherwise.

B1: MatRAP1 N-42: MatRAP1 with 42 amino acids removed from the N-terminus (protein)
chain: FREELKHFGAKIERHNHYQKQLEIAHEWLRHAESVGDGERVSRSREKHALLEGRTKELGYTVKKHLQDLSGRISRAR
B2: VRAP1 d3: RAP d3 variant selected on VLDLR CR6-8: R205S, E251R, K256L, K270E, R296L, G313D (protein)
chain: LDRLSRVSHQGYSTEAEFEEPRVIDLWDLAQSANLTDKELEAFREELKHFRAKIELHNHYQKQLEIAHEELRHAESVGDGERVSRSREKHALLEGLTKELGYTVKKHLQDLSDRISRAR
B3: MatRAP1: RAP d3 variant selected on MAT CR23: E251G, K256R, K270W (protein)
chain: B2 chain with S5R, R51G, L56R, E70W, L96R, D113G
B4: MatRAP2: RAP d3 variant selected on MAT CR34: S232P, E239G, E246G, E251L, K256P, I266T, A267V, H268R, K270P, H273Y, R287H, H290Y, K298R, S312F (protein)
chain: LDRLRRVSHQGYSTEAEFEEPRVIDLWDLAQPANLTDKGLEAFREGLKHFLAKIEPHNHYQKQLETVREPLRYAESVGDGERVSRSHEKYALLEGRTRELGYTVKKHLQDLFGRISRAR
B5: mRAPc: minimized RAP d3, E241C, A242G, R314G, I315C, disulfide-cyclized, N-terminal biotin-GGSGG (SEQ ID NO: 99) (peptide)
chain: CGFREELKHFEAKIEKHNHYQKQLEIAHEKLRHAESVGDGERVSRSREKHALLEGRTKELGYTVKKHLQDLSGGC
modifications: disulfide cyclization; N-terminal biotin-GGSGG

How the values were obtained:
MAT CR23 [1] = molecular target: T1, MAT CR23 (Homo sapiens, UniProt Q9Y5Y6); test: Binding of sequentially-truncated MatRAP1 (FIG. 9)
T1 construct: made in house; host or cells: E. coli BL21(DE3) CodonPlus-RIPL, pET30(+)a
T1 sequence (Q9Y5Y6 487-566): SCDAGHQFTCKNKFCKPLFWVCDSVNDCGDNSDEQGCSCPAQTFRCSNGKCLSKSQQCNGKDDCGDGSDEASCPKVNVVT
Protocol: Purified, refolded CR protein (1 μg) was bound to Nunc Maxisorp™ 96-well plates in TBS pH 8 supplemented with 5 mM CaCl2 (TBSC) overnight at 4° C. Wells were washed with TBSC and then blocked with TBSC containing 2% bovine serum albumin (BSA). RAP ligands were then incubated with the immobilized receptor at a range of concentrations for 2 hours in the above blocking buffer supplemented with 0.05% Tween-20 at room temperature. Control wells contained no added ligand. As an additional control, to determine whether the absence of calcium affected binding, 10 mM EGTA was included in the incubation medium for some samples. Wells were washed with TBSTC and bound ligands detected with polyclonal anti-RAP (BP41/42, 1:1,000, BioMarin). Excess primary antibody was removed and wells washed before incubation with the secondary antibody, HRP-conjugated goat anti rabbit IgG (Bio-Rad). After washing, TMB substrate solutions (Bio-Rad) were added to detect HRP. Color development was stopped with 1N HCl. Absorption at 450 nm was measured with a microplate spectrophotometer (Molecular Devices). Data were plotted and Kd values derived by non-linear regression with the assumption of single-site binding (GraphPad Prism). […]

VLDLR CR78 = molecular target: T2, VLDLR CR78 (Homo sapiens, UniProt P98155); test: Solid phase binding assay
T2 construct: a CR pair from VLDLR (CR78); made in house; host or cells: E. coli BL21(DE3) CodonPlus-RIPL, pET30(+)a
Protocol: (§1) All expression constructs were sequenced to verify insert sequences and the junctions with the expression vector. Each plasmid was then used to transform BL21(DE3) CodonPlus-RIPL™ cells (Stratagene). Expression of the CR proteins was induced in logarithmic growth-phase cells grown in LB supplemented with 34 μg/mL chloramphenicol, 12.5 μg/mL tetracycline and 15 μg/mL kanamycin by addition of 2 mM IPTG, followed by reduction in incubator temperature to 32° C. and incubation for 4 hours with agitation at […]. Cells were pelleted and resuspended, at 3.5% of the initial culture volume in 10 mM Tris-HCl pH 8, 100 mM NaH2PO4, 8M Urea. Resuspended cells were then frozen in liquid nitrogen, rapidly thawed to 37° C. and sonicated for 10 seconds at an amplitude setting of 60 using a Cole-Parmer CP-130 ultrasonic processor connected to a 3 mm probe. This procedure was repeated three times to effect complete lysis of the cells. Lysates were clarified by spinning twice at 10,000×g in a Sorvall RC-5 centrifuge for 20 minutes at 15° C. Ni-NTA columns (Qiagen Superflow™, 1.5 mL packed bed) were used to purify the CR proteins. Briefly, the resin was equilibrated with two column volumes of lysis buffer. The clarified lysate was then supplemented to 20 mM with imidazole and incubated with the equilibrated Ni-NTA resin overnight at 4° C. The flow-through was discarded. Columns were washed once with one column volume of lysis buffer and then three times with one column volume of TBS pH 8 supplemented with 20 mM imidazole. CR-loaded beads were then removed from the column and CR proteins eluted by incubating at room temperature for 30 minutes with one column volume of the same buffer containing 200 mM imidazole. This step was repeated once and the eluates pooled. Eluted CR protein solutions were then supplemented to 2 M urea, 10 mM CaCl2 and 5 mM DTT. Purified, denatured CR protein solutions were transferred to 3,500 MWCO Slide-A-Lyzer™ (Pierce) cassettes and sequentially dialyzed against a 200-fold excess of 50 mM Tris-HCl pH 8.5, 10 mM CaCl2, 1 mM reduced glutathione, 0.5 mM oxidized glutathione at room temperature overnight and then against TBS supplemented with 5 mM CaCl2 at 4° C. overnight. Protein concentrations were determined by Bradford assay and purity confirmed by SDS-PAGE with Coomassie Brilliant Blue staining.
(§2) Purified, refolded CR protein (1 μg) was bound to Nunc Maxisorp™ 96-well plates in TBS pH 8 supplemented with 5 mM CaCl2 (TBSC) overnight at 4° C. Wells were washed with TBSC and then blocked with TBSC containing 2% bovine serum albumin (BSA). RAP ligands were then incubated with the immobilized receptor at a range of concentrations for 2 hours in the above blocking buffer supplemented with 0.05% Tween-20 at room temperature. Control wells contained no added ligand. As an additional control, to determine whether the absence of calcium affected binding, 10 mM EGTA was included in the incubation medium for some samples. Wells were washed with TBSTC and bound ligands detected with polyclonal anti-RAP (BP41/42, 1:1,000, BioMarin). Excess primary antibody was removed and wells washed before incubation with the secondary antibody, HRP-conjugated goat anti rabbit IgG (Bio-Rad). After washing, TMB substrate solutions (Bio-Rad) were added to detect HRP. Color development was stopped with 1N HCl. Absorption at 450 nm was measured with a microplate spectrophotometer (Molecular Devices). Data were plotted and Kd values derived by non-linear regression with the assumption of single-site binding (GraphPad Prism).
(§3) From the large number of CR pairs with unique combinations of amino acids at A, C, A′ and C′ within the calcium-binding loop of each CR, CR pairs or triplets were selected to test their binding to RAP d3 (FIG. 2). An additional pair derived from the FDC-8D6 protein was tested, designated 8D6 CR12, having the sequence ([…]) (SEQ ID NO: 91). […]

VLDLR CR6-8 = molecular target: T3, VLDLR CR6-8 (Homo sapiens, UniProt P98155); test: Solid phase binding assay; details: 80 nM ligand, FIG. 7
T3 construct: made in house; host or cells: E. coli BL21(DE3) CodonPlus-RIPL, pET30(+)a
Protocol: as §1, §2, §3

MAT CR23 [2] = molecular target: T1, MAT CR23; test: Solid phase binding assay; details: 80 nM ligand, FIG. 7
Protocol: as §1, §2, §3

MAT CR12 = molecular target: T4, MAT CR12 (Homo sapiens, UniProt Q9Y5Y6); test: Solid phase binding assay; details: 80 nM ligand, FIG. 7
T4 construct: termed MAT CR12 (ST14 CR12), amino acids 452-524; made in house; host or cells: E. coli BL21(DE3) CodonPlus-RIPL, pET30(+)a
T4 sequence (Q9Y5Y6 452-524): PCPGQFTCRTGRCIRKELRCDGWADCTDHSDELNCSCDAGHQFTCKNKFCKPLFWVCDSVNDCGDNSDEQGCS
Protocol: as §1, §2, §3

the other CR pairs = test: Binding at 80 nM to fourteen CR pairs or triplets (FIG. 7); set-up: species or system human; details: 80 nM ligand
Protocol: RAP d3, MegaRAP1 d3, VRAP2 d3, MatRAP1 d3 and MatRAP2 d3 were each incubated at 80 nM concentrations with LRP1 CR3-5, LRP6 CR12, LRP6 CR23, LRP6 CR1-3, LRP2 CR89, LRP2 CR2728, LRP2 CR3031, LRP2 CR3435, LRP2 CR34-36, VLDLR CR78, VLDLR CR6-8, MAT CR12, MAT CR23 and MAT CR34. Samples were tested twice, in duplicate, and values combined. Means and standard deviations were then calculated. Blank values obtained from wells incubated in the absence of ligand were used to correct absorbance data.
Purified, refolded CR protein (1 μg) was bound to Nunc Maxisorp™ 96-well plates in TBS pH 8 supplemented with 5 mM CaCl2 (TBSC) overnight at 4° C. Wells were washed with TBSC and then blocked with TBSC containing 2% bovine serum albumin (BSA). RAP ligands were then incubated with the immobilized receptor at a range of concentrations for 2 hours in the above blocking buffer supplemented with 0.05% Tween-20 at room temperature. Control wells contained no added ligand. […] Wells were washed with TBSTC and bound ligands detected with polyclonal anti-RAP (BP41/42, 1:1,000, BioMarin). […] Absorption at 450 nm was measured with a microplate spectrophotometer (Molecular Devices). […]
The apparent dissociation constant for binding of VRAP1 d3 to VLDLR CR78 was determined to be 44±9 nM. […]

[3] = system: wild-type CHO-K1 cells expressing LRP1; test: Endocytosis-dependent toxicity assay (MTT); format: cell-based, Chinese hamster; details: 100 nM, 48 hours
Protocol: (§4) In order to determine the ability of the cyclic RAP peptides to bind receptor on the surface of a cell, binding was assessed in the presence of cultured cell lines. To determine whether cyclic RAP peptides could be bound and endocytosed by full-length LRP1 expressed on cells in culture, an endocytosis-dependent toxicity assay was used. Two cell-lines were used, Chinese hamster ovary CHO-K1 cells expressing only one high-affinity RAP-receptor, LRP1, and a mutant CHO-K1 lacking LRP1 expression was used as control. Cells were cultured in BioWhittaker UltraCHO medium (Lonza, Basel, Switzerland) supplemented with 2.5% fetal bovine serum. Cells were seeded in 12-well tissue culture plates. The biotinylated mRAPc was combined with equimolar amounts of a conjugate between streptavidin and the bacterial toxin saporin (ZAP, Advanced Targeting Systems, San Diego, Calif.). The mixture was diluted in MEM without phenol red (Mediatech, Manassas, Va.) supplemented with 10% FBS to 100 nM. Conjugated mRAPc (100 nM) and control agents (mRAPc alone, 100 nM, streptavidin-saporin alone, 100 nM, saporin alone, 1 mM) were cultured with confluent cells and cell death was assayed 48 hours later via MTT assay (Invitrogen, San Diego, Calif.).

[4] = system: LRP-deficient CHO-K1 cells; test: Endocytosis-dependent toxicity assay (MTT); format: cell-based, Chinese hamster; details: 100 nM, 48 hours
Protocol: as §4

Molecule	binding at 80 nM (in words) (MAT CR23 [2])	binding at 80 nM (in words) (MAT CR12)	binding at 80 nM to the other CR pairs (in words) (the other CR pairs)	also measured
B1	–	–	–	increase in binding affinity over the full-length d3 variant (MAT CR23 [1]): 3 fold
B2	–	–	–	binding at 80 nM (in words) (VLDLR CR78; 80 nM ligand, FIG. 7): bound; Kd (VLDLR CR78; solid-phase assay, VLDLR CR78, read-out: apparent dissociation constant (Kd)): 44 ± 9 nM; binding at 80 nM (in words) (VLDLR CR6-8): bound
B3	bound	bound	not appreciably	–
B4	bound	bound	not appreciably	–
B5	–	–	–	effect on cell survival (in words) [3]: no effect; effect on cell survival (in words) [4]: no effect
